From article PMC7660924, “NIGT1 family proteins exhibit dual mode DNA recognition to regulate nutrient response-associated genes in Arabidopsis” (PLoS Genetics, 2020) come the findings set out here.

Series [1] addresses T1, NIGT1.1 L25A/L39A L25A;L39A (Arabidopsis thaliana (Col-0?)) (UniProt Q9FPE8).
T1 sequence: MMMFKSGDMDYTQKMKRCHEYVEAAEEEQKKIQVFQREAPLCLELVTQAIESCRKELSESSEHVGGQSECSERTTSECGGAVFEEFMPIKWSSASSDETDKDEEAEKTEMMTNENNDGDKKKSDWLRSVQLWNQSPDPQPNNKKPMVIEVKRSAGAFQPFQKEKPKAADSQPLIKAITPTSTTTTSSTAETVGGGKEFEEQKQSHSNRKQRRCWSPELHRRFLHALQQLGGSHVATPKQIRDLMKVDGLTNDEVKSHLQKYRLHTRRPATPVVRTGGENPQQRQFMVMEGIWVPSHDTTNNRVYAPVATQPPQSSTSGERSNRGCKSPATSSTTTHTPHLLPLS
The series is described as follows: EMSA. To be noted: EMSA: 15 ul reaction, 40 fmol biotin-labeled probe, 7.5-60 ng protein, 4% polyacrylamide gel; buffer, salt, pH and temperature not given (as in ref 24).

In series [2] the target is T2, NIGT1.1 WT (Arabidopsis thaliana (Col-0?)) (UniProt Q9FPE8).
T2 sequence: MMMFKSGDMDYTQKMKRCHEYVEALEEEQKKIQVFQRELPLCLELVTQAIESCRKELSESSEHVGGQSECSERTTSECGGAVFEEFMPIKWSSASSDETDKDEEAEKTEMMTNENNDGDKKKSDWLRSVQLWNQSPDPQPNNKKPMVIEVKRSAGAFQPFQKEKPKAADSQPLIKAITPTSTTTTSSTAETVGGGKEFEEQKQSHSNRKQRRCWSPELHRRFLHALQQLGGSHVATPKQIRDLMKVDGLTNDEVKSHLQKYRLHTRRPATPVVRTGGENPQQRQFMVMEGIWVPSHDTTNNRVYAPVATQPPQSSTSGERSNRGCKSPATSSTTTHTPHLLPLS
The series is described as follows: EMSA. To be noted: EMSA: 15 ul reaction, 40 fmol biotin-labeled probe, 7.5-60 ng protein, 4% polyacrylamide gel; buffer, salt, pH and temperature not given (as in ref 24).

Series [3] concerns the molecule itself. Put plainly: SEC-MALS; Shodex PROTEIN LW-803 column; 20 mM Tris-HCl (pH 7.5), 500 mM NaCl, 10% glycerol, room temperature; 1 mg/ml, 70 μl loaded; 0.8 ml/min.

Turning to “ACACAGGAAACAGCTATGACCATGCGATGTCTGAATATTAATCACACGATGGCTTATATAGGGTTCCTAGCCAGTGTTGACAATGAAAAAAGCATTCTTTGGAGATTCTCAACGGTTAACTATCGATTTAAATATTAATTTTCGAGGAATCCATTTTCGCCGCAAGCATCTTCCTAGTCTCTCGCTTATCACCAAAGGTTGCCGATATCCTTCCAAATGACCGCTCTACCCTTCCCTCATCTTGC (double strand) [P3 (NRT2.1 promoter)]”, the figures for the binding result in series [1] and in series [2] were “binds more weakly” and “binds”, respectively.
Taken in the same sequence, the figures for “ACACAGGAAACAGCTATGACCATGCAACGGTTAACTATCGATTTAAATATTAATTTTCGAGGAATCCATTTTCGCCGCAAGCATCTTCCTAGTCTCTCGCTTATCACCAAAGGTTGCCGATATCCTTCCAAATGACCGCTCTACCCTTCCCTCATCTTGC (double strand) [P3-1]” were “binds more weakly” and “no binding”.
For the molecule “ACACAGGAAACAGCTATGACCATGAGCTCTTTTATTTTCTGGGAAACTTAAGTGAGAATGATGAATGAAGAAGAAAGAGAGGGGGAAGAGGTTTAGAGATATAAAAGGGATTAAAAAGAATATTCTTAAGGTTTCTAATTAGAATATCCTTTTTTCTCTGTCTTTCTTTCGGGAGAATATCTTCCTTTTATTCCTTTCTTATTTATTACTTTTTCGTGGTTATCTGTGGGTGAGATTATAACACATGCCTATGTCAGTTCATAAATATCAATCACAACTC (double strand) [P2 (SPX1 promoter)]”, the binding entry in series [1] is “binds more weakly”; in series [2], “binds”.
Turning to “AATGAATTAAGACGCGAATCGGGAAAATTCAATAAATTGTCCATTGGGGGGTGCTTTAAAGAAAGATTGAAAGATGCCGAGGTTTATACCCTTTTCCTATCAAGAATATTCCATGGAATCCAACTACTTTTGACCCATTTGCGTATTTGTTAAATCTTTTCAGAAAATCAAAAGTGGGTAAATTGTCAAACTAGTTGTAGTATTGAACTACTATTTATTGATCATGCCATCATCCATGGTCATAGCTGTTTCCTGTGT (double strand) [P1 (SPX1 promoter)]”, the binding entry in series [1] is “binds more weakly”; in series [2], “binds”.
For the molecule “AATATTTAAATCGATAGTTAACCGTTGAGAATCTCCAAAGAATGCTTTTTTCATTGTCAACACTGGCTAGGAACCCTATATAAGCCATCGTGTGATTAATATTCAGACATCGCATGGTCATAGCTGTTTCCTGTGT (double strand) [P3-2]”, the binding result in series [1] is recorded as “binds more weakly”; in series [2], “no binding”.

B1: Trx-6×His-NIGT1.1^WT-6×His recombinant protein (natural protein, Arabidopsis thaliana, UniProt Q9FPE8 1-344, looked up)
chain: MMMFKSGDMDYTQKMKRCHEYVEALEEEQKKIQVFQRELPLCLELVTQAIESCRKELSESSEHVGGQSECSERTTSECGGAVFEEFMPIKWSSASSDETDKDEEAEKTEMMTNENNDGDKKKSDWLRSVQLWNQSPDPQPNNKKPMVIEVKRSAGAFQPFQKEKPKAADSQPLIKAITPTSTTTTSSTAETVGGGKEFEEQKQSHSNRKQRRCWSPELHRRFLHALQQLGGSHVATPKQIRDLMKVDGLTNDEVKSHLQKYRLHTRRPATPVVRTGGENPQQRQFMVMEGIWVPSHDTTNNRVYAPVATQPPQSSTSGERSNRGCKSPATSSTTTHTPHLLPLS
notes: NIGT1.1, Arabidopsis thaliana, At1g25550; cDNA encoding NIGT1.1^WT cloned into pET32-b(+) by NcoI and HindIII; expected mass of the recombinant protein 57.4 kDa; Plasmid pET32-NIGT1.1; also called recombinant NIGT1.1^WT; Trx-6×His-NIGT1.1-6×His; not shown: Trx, N-terminal, kept; 6×His, N-terminal, kept; 6×His, C-terminal, kept
As to B1, the “stoichiometry N” value in series [3] worked out at 2.
